Assays:
Settings in all cases: both partners purified
[1] = biological target: T1, IL-18 receptor β extracellular domains (residues 15-356), construct for crystallography (human, UniProt O95256-1 15-356); experiment: crystal structure; IL-18/IL-18Rα/IL-18Rβ ternary complex, 3.10 Å, one copy in the asymmetric unit, data at 100 K (PDB 3WO4)
T1 construct: human IL-18 receptor β, extracellular domains, residues 15-356 of NM_003853; also called IL-18Rβ; source: Sf9 insect cells, secreted, purified (ion exchange, Ni-NTA, gel filtration with or without HRV 3C treatment)
T1 sequence (looked up): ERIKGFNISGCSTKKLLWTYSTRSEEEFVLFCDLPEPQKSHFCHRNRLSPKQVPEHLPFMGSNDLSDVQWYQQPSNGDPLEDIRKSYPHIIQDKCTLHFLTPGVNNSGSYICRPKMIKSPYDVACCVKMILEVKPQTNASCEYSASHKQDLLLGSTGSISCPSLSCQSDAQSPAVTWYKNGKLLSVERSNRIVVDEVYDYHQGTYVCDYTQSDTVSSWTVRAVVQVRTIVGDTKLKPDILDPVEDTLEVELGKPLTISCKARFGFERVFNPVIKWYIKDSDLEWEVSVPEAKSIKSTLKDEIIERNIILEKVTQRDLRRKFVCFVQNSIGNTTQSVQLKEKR

[2] = biological target: T2, preformed binary complex of IL-18 wild type and un-tagged IL-18Rα N236Q extracellular domain (human, UniProt Q14116 37-193; Q13478 20-329, N236Q); experiment: SPR; BIAcore 3000, 25 °C; C-terminal 6xHis IL-18Rβ (wild type or mutant) immobilised at about 100 RU on a Ni-NTA sensor chip; un-tagged IL-18Rα saturated with 500 nM IL-18 (preformed binary complex) injected as analyte in HBS-P; triplicate
T2 construct: interleukin-18, human, mature IL-18 (residues 1-157); numbers count on: the mature protein; IL-18 receptor alpha, human, extracellular domains, residues 20-329 of NM_003855; lacks the N-linked sugar chain on N236; also called IL-18WT/IL-18Rα mutant complex; IL18/IL18Rα-N236Q; source: IL-18: E. coli BL21(DE3), purified; IL-18Rα: silkworm larvae haemolymph, purified; un-tagged IL-18Rα saturated …

[3] = biological target: T3, preformed binary complex of IL-18 wild type and un-tagged IL-18Rα wild type extracellular domain (human, UniProt Q14116 37-193; Q13478 20-329); experiment: as above
T3 construct: interleukin-18, human, mature IL-18 (residues 1-157); numbers count on: the mature protein; IL-18 receptor alpha, human, extracellular domains, residues 20-329 of NM_003855; also called IL-18 WT/IL-18Rα WT complex; IL-18/IL-18Rα; source: IL-18: E. coli BL21(DE3), purified; IL-18Rα: silkworm larvae haemolymph, purified; un-tagged IL-18Rα saturated with 500 nM IL-18

[4] = biological target: T4, IL-18 WT/IL-18Rα WT complex (SPR analyte) (human, UniProt Q14116 37-193; Q13478 20-329); experiment: SPR; BIAcore 3000, 25 °C, C-terminal 6xHis IL-18Rβ immobilised (~100 RU) on an NTA sensor chip, un-tagged IL-18Rα saturated with 500 nM IL-18 as analyte in HBS-P
T4 construct: human interleukin-18, mature IL-18 (residues 1-157); numbers count on: the mature protein; human IL-18 receptor α, extracellular domains, residues 20-329 of NM_003855, printed as un-tagged; also called IL-18/IL-18Rα binary complex; IL-18 WT(control); source: IL-18: E. coli BL21(DE3), purified; IL-18Rα: silkworm larvae haemolymph, purified; un-tagged IL-18Rα saturated with 500 nM IL-18

[5] = biological target: T5, IL-18WT/IL-18Rα N236Q complex (SPR analyte) (human, UniProt Q14116 37-193; Q13478 20-329, N236Q); experiment: as above
T5 construct: human interleukin-18, mature IL-18 (residues 1-157); numbers count on: the mature protein; human IL-18 receptor α, extracellular domains, residues 20-329 of NM_003855, used instead of the un-tagged wild type; The mutation removes the N-linked sugar chain at Asn236; also called N236Q^Rα; source: IL-18: E. coli BL21(DE3), purified; IL-18Rα mutant: silkworm larvae haemolymph, purified; IL-18Rα …

B1: IL-18 receptor α extracellular domains (residues 20-329), construct for crystallography (domain or fragment, human, UniProt Q13478 20-329, looked up)
chain: ESCTSRPHITVVEGEPFYLKHCSCSLAHEIETTTKSWYKSSGSQEHVELNPRSSSRIALHDCVLEFWPVELNDTGSYFFQMKNYTQKWKLNVIRRNKHSCFTERQVTSKIVEVKKFFQITCENSYYQTLVNSTSLYKNCKKLLLENNKNPTIKKNAEFEDQGYYSCVHFLHHNGKLFNITKTFNITIVEDRSNIVPVLLGPKLNHVAVELGKNVRLNCSALLNEEDVIYWMFGEENGSDPNIHEEKEMRIMTPEGKWHASKVLRIENIGESNLNVLYNCTVASTGGTDTKSFILVRKADMADIPGHVFTR
modifications: N-linked glycosyl chains at Asn91, 102, 150, 197, 203, 236 and 297 (high-mannose glycans, Sf9)
notes: human IL-18 receptor α, extracellular domains, residues 20-329 of NM_003855; also called IL-18Rα; source: Sf9 insect cells, secreted, purified (ion exchange, Ni-NTA, gel filtration with or without HRV 3C treatment)
B1: binds [1].

B2: human IL-18 receptor beta extracellular domain (residues 15-356), C-terminal 6xHis, wild type, from silkworm (receptor, UniProt O95256-1 15-356, looked up)
chain: T1 sequence (looked up)
notes: IL-18 receptor beta, human, extracellular domains, residues 15-356 of NM_003853; also called IL-18Rβ; IL-18Rβ WT; source: silkworm (B. mori) larvae, BmNPV bacmid, haemolymph, purified (ion exchange, Ni-NTA, gel filtration); not shown: 6xHis, C-terminal, kept
B2 gave a kon [2] of 12000 M⁻¹ s⁻¹ and a kon [3] of 11000 M⁻¹ s⁻¹.

B3: C-terminal 6xHis tagged IL-18Rβ extracellular domains (residues 15-356), for SPR (domain or fragment, human, UniProt O95256-1 15-356, looked up)
chain: T1 sequence (looked up)
notes: human IL-18 receptor β, extracellular domains, residues 15-356 of NM_003853; also called IL-18Rβ WT; IL-18Rβ WT (control); source: silkworm (B. mori) larvae, BmNPV bacmid, haemolymph, purified as from Sf9; not shown: 6xHis, C-terminal, kept
Binder B3 has a Kd [4] of 15 nM and a Kd [5] of 17 nM.
